# In US20250027068:
# Target: pooled human IgG (human IgG1,2,3 and 4)
Protein,Enzyme Activity Endpoint Assay: Fab'2 [ng/µL],Enzyme Activity Endpoint Assay: Fc [ng/µL],Enzyme Activity Endpoint Assay: IgG [ng/µL],Enzyme Activity Endpoint Assay: scIgG [ng/µL]
PRT-170 (protein) MANQEIRYSEVTPYHVTSVWTKGVTPPTDFIKGEDVFHAPYKAHQGWYDITKTFNGKDDLLCGAATAGNMLHWWFDQNKDQIKRYLEEHPEKQKINFNGEQMFDVKEAIDTKNSQLDSKLFEYFKEKAFPYLSTKHLGVFPDHVIDMFINGYRLSLTNHGPTPVKEGSKDPRGGIFDAVFTRGDQSKLLTSRHDFKEKNLKEISDLIKKELTEGKALGLSHTYANVRINHVINLWGADFDSNGNLKAIYVTDSDSNASIGMKKYFVGVNSAGKVAISAKEIKEDNIGAQVLGLFTLSTGQDSWNQTN,755,193,0,0
PRT-171 (protein) MANQEIRYSEVTPYHVTSVWTKGVTPPTDFIKGEDVFHAPYKAGQGWYDITKTFNGKDDLLCGAATAGNMLHWWFDQNKDQIKRYLEEHPEKQKINFNGEQMFDVKEAIDTKNSQLDSKLFEYFKEKAFPYLSTKHLGVFPDHVIDMFINGYRLSLTNHGPTPVKEGSKDPRGGIFDAVFTRGDQSKLLTSRHDFKEKNLKEISDLIKKELTEGKALGLSHTYANVRINHVINLWGADFDSNGNLKAIYVTDSDSNASIGMKKYFVGVNSAGKVAISAKEIKEDNIGAQVLGLFTLSTGQDSWNQTN,765,187,23,0
PRT-172 (protein) MANQEIRYSEVTPYHVTSVWTKGVKPPTDFIKGEDVFHAPYKAHQGWYDITKTFNGKDDLLCGAATAGNMLHWWFDQNKDQIKRYLEEHPEKQKINFNGEQMFDVKEAIDTKNSQLDSKLFEYFKEKAFPYLSTKHLGVFPDHVIDMFINGYRLSLTNHGPTPVKEGSKDPRGGIFDAVFTRGDQSKLLTSRHDFKEKNLKEISDLIKKELTEGKALGLSHTYANVRINHVINLWGADFDSNGNLKAIYVTDSDSNASIGMKKYFVGVNSAGKVAISAKEIKEDNIGAQVLGLFTLSTGQDSWNQTN,821,215,0,0
PRT-173 (protein) MANQEIRYSEVTPYHVTSVWTKGVTPPANFTQGEDVFHAPYVANQGWYDITKTFNGKDDLLCGAATAGNMLHWWFDQNKDQIKRYLEEHPEKQKINFNGEQMFDVKEAIDTKNHQLDSKLFEYFKEKAFPYLSTKHLGVFPDHVIDMFINGYRLSLTNHGPTPVKEGSKDPRGGIFDAVFTRGDQSKLLTSRHDFKEKNLKEISDLIKKELTEGKALGLSHTYANVRINHVINLWGADFDSNGNLKAIYVTDSDSNASIGMKKYFVGKNASGKVAISAKEIEGENIGAQVLGLFTLSTGQDSWNQTN,912,226,0,30
PRT-174 (protein) MANQEIRYSEVTPYHVTSVWTKGVTPPANFTQGEDVFHAPYVANQGWYDITKTFNGKDDLLCGAATAGNMLHWWFDQNKDQIKRYLEEHPEKQKINFNGEQMFDVKEAIDTKNHQLDSKLFEYFKEKAFPYLSTKHLGVFPDHVIDMFINGYRLSLTNHGPTPVKEGSKDPRGGIFDAVFTRGDQSKLLTSRHDFKEKNLKEISDLIKKELTEGKALGLSHTYANVRINHVINLWGADFDSNGNLKAIYVTDSDSNASIGMKKYFVGKNASGKVAISAKEIEDENIGAQVLGLFTLSTGQDSWNQTN,586,160,0,0
